The target of this assay is T1, PH^Ste5 domain (Ste5 aa 373–537), bacterially expressed and purified (S. cerevisiae, UniProt P32917 373-537).
T1 sequence (looked up): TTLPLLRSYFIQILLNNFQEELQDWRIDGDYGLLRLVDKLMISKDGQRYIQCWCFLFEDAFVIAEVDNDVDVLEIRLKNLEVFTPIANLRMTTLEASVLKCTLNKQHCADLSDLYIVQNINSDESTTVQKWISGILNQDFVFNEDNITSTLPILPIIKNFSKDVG
The experiment in a line: SPR.

B1: His-tagged RBL^Ste11 domain (Ste11 aa 116–236) (domain or fragment, S. cerevisiae, UniProt P23561 116-236, looked up)
chain: PEKHCVIFILNDGSAKKVNVNGCFNADSIKKRLIRRLPHELLATNSNGEVTKMVQDYDVFVLDYTKNVLHLLYDVELVTICHANDRVEKNRLIFVSKDQTPSDKAISTSKKLYLRTLSALS
For orientation: Kd means the concentration at which binding is half-saturated. Low values mean higher affinity, high ones lower affinity. B1 showed a Kd of roughly 200 nM.

The values above are taken from publication PMC3564526 (Molecular Biology of the Cell, 2013).
